# From the supplement of paper PMC12042874
# ± gives the uncertainty stated by the source.
# Test: amyloid nucleation score (Sup35N fusion, yeast selection) (log enrichment); library NNK3; higher = more nucleation; inactive = no reads after selection
# Summary of the method: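 Output and input plasmid inserts were sequenced by Illumina after psi-negative yeast carrying Sup35N fused to peptides of 20 random codons had been induced 24 hours with 100 μM copper sulfate and grown 7 days at 30°C on medium lacking adenine and uracil. The nucleation score is the DiMSum log enrichment of output over input reads, centred on the mode score of non-aggregating sequences. Sequences with under 100 input reads were excluded.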
row,Substance,amyloid nucleation score
1,MSFVSSRGVNKWQVETGLLE,inactive
2,LNQLGSCY,-0.019 ± 1.1
3,THRVTTRCLLRLLRWIRM,inactive
4,LTAVLLTPYSLFGFALWWFV,-0.487 ± 1.4
5,MCSRCLFHCGLVVCRVVVPA,inactive
6,NEVDDWFSD,inactive
7,CPESCSN,inactive
8,SLRYGREIKNMRQNCIDPWC,inactive
9,KYSMTK,inactive
10,SNRGYTKRYF,inactive
11,NYLRLFLISIAYKSVLSVML,inactive
12,LDLDSNRFKVDLNDLYELVV,inactive
13,MMGKRDALVFN,inactive
14,HKYKQIWMFPEGPV,inactive
15,VGYVFFGFPVLKYARQESLS,inactive
16,IWNRLESFHCHILMVTFHVN,inactive
17,TGLNGLRVLYSMRRPGKV,inactive
18,FRDCMVINDMVVWDFCTSCA,inactive
19,YAHLAL,inactive
20,EGFYTFALGRICGFWSYNFC,1.23 ± 0.14
21,PEFDLCDINSSLGSMRFWQW,inactive
22,IIFLQIPNLFMGNKTRQKGA,inactive
23,SLGTIMFVCGGPRGHLCSVR,-0.414 ± 1.4
24,HLGYTVYSRTMRSSFVFRVL,inactive

row,Substance,amyloid nucleation score
1,VAFYVTHGAIVYFSMGCAGI,1.63 ± 0.11
2,NLSVIMLVVCMLTINNIYMS,1.29 ± 0.11
3,LIYCYMFMITAVGRACMPCR,inactive
4,MSCSASSSGKAWFGGSPTWW,0.674 ± 0.3
5,ELSHQVCYSVGCACETSDGQ,inactive
6,LLPAI,inactive
7,WTKKFRVMTACLLEWYVDEK,inactive
8,HSLDRKYSWRI,inactive
9,LRRQTSHKS,inactive
10,YLIEYTSSNKPMAPLSDDTQ,inactive
11,PTILWAQYAGWGSKVWPPRL,inactive
12,MGRGWRHGCWLGRILRFWYD,inactive
13,ISMDRYHNTRHSVNRILLTC,inactive
14,LIFPWDLRKGAHHPGLRSCI,inactive
15,LLWSCCRGRMYDNMFHGKVK,inactive
16,WSETNTFS,inactive
17,RTRSVLQIWLSFMMLCQACW,-0.534 ± 1.5
18,VSEMCIMSCTHIVGDCSWIR,inactive
19,GSRRWFEFFVPWLQLD,inactive
20,TLCSSGGMFHRSMDSITMS,inactive
21,HFFMLGLYTSACHLESNYDC,0.758 ± 0.1
22,RRGIWDSVKMEKFL,inactive
23,SACSVIFTEYINVSLLLSST,0.251 ± 0.42
24,TVTVPG,inactive

row,Substance,amyloid nucleation score
1,WTSHALKISPLNICNQLEHV,-0.09 ± 0.77
2,RMFKFGTCYKSVGPTKRAEC,inactive
3,ESVRRMLLTLGAHWGSPIHF,inactive
4,SSTCTDL,inactive
5,RYDMRVVSRNQLKYWTMGRE,-0.646 ± 1.1
6,RRCSIFLVVDIAGQLQRFMS,inactive
7,SSRRYS,inactive
8,ATIIPICSHLIDHSVSLDQG,inactive
9,TFVHAYTGWMEFVV,inactive
10,CTNKSSVYEFCYCVADMANV,inactive
11,KYVVQPYGSCRWGLITVRAN,inactive
12,VISGVIVMWYAWMWAGYRVR,inactive
13,GVFCSVINLIDATVVN,inactive
14,ISGTFACQNSTFFSGYREAI,inactive
15,QPPAKSMWFSFDMLS,inactive
16,ILWSILVYLTLITVLCLCHF,0.444 ± 0.26
17,AVCYRLWFKM,inactive
18,YLSICVMFLVASRVRSISSI,inactive
19,GANSGFRGIDGLLPALDKQE,inactive
20,VVRVHIRCTAFYKAPSYWGS,0.987 ± 0.11
21,VGLWYSDIISVFCLNLMRLV,inactive
22,MHGTI,inactive
23,FNIGFSSDSYAPWLFMICEM,inactive
24,CLLSYSQPLGKGFGSTRDRC,inactive

row,Substance,amyloid nucleation score
1,VVQRMG,-0.048 ± 1.1
2,ADKRSMMWKFMFSRFCGRVT,inactive
3,SIYFWCS,2.09 ± 0.065
4,GSYRLLY,inactive
5,DRILAYKTYLGNYLLVVLYN,inactive
6,FTPDVRWLNVLNSHNGVIEV,inactive
7,GSWTVLQNRHQAERVVSVYR,inactive
8,LFCRVWSFGVLMCFE,inactive
9,SYVCWDIFIGQRSNAALSTI,inactive
10,FFMPFRNLIHKLVTTEELYR,inactive
11,CLCFCCCSRVHYGTLFRNSA,2.98 ± 0.052
12,EPITASYMRILNCACVAYCG,inactive
13,RISKA,inactive
14,LNQSDRCKVCWYWLGHT,inactive
15,YLVVHW,inactive
16,DYITYVYYVSVRF,-0.124 ± 0.82
17,LYDSSYMVDIDSYTLENCRS,inactive
18,TKSYPRTMFEPALALDMP,0.871 ± 0.26
19,ASRSMTGSLCLFAFMV,inactive
20,YRKWGCWHRTFRLIYCTVVL,inactive
21,ESFVGEGDRSWSGHGNFITV,inactive
22,WLKWFLRTCNMVKIFASPFF,inactive
23,LYSVFVRRSCLNG,inactive
24,IGRVTSMGRMLHGNW,inactive

row,Substance,amyloid nucleation score
1,AMGLACGLDGSAVFGCMLTT,inactive
2,VISVTRSYSHTYK,inactive
3,DNSFSPLASGLYQLKGVELI,inactive
4,SVGFVHFVNTGDQKYERRVD,inactive
5,CSIVVNLMYLLVDACMGPKG,inactive
6,DCLSVEFVLNTRVAYWCTCA,-0.092 ± 0.52
7,TFRLILILRTSI,0.898 ± 0.16
8,RMAIISSRIWFGFLAMQFVF,inactive
9,LQNVGD,inactive
10,NTTFS,inactive
11,RDSFVFYVY,inactive
12,SFSCMKDSGPNMCKGLRVKQ,inactive
13,LIVRLDPIFKKIKNK,1.27 ± 0.11
14,LLGLCRVLW,1.31 ± 0.097
15,KQADVFIIMSRVIGNRGCLF,inactive
16,CIWLTVIFSWRYEVG,inactive
17,SYWYACGKYADNSMER,inactive
18,RNNVMYVGYEGI,inactive
19,NSLLGHF,inactive
20,HLGKPKEFMTIAGGLHCLML,inactive
21,LARQFF,inactive
22,TVANTNRTALNLMLEMGLGL,inactive
